Experimental findings from publication PMC8949964, “In Vitro Biological Evaluation of Aprepitant Based ^177Lu-Radioconjugates” (Pharmaceutics, 2022) are described below.

What is called logD is lipophilicity at a set pH, counting ionised and neutral species. A higher logD goes with a more lipophilic compound.

The format of series [1] is physicochemical. As for the experimental part:
A solution of purified ^177Lu-radioconjugate (around 1 MBq) or ^68Ga-radioconjugate (around 10 MBq) in 100 µL of 0.1M DPBS buffer was added into of 900 µL of 0.1 M DPBS buffer and 1000 µL of N-octanol (saturated with each other), vigorously stirred and centrifuged at 13,500 rpm for 5 min. Then, similar aliquots of both separated phases were taken for radioactivity measurement using a well-type NaI(Tl) detector. The lipophilicity values were expressed as the decimal logarithm of the distribution coefficient, D, which was calculated as a ratio of the radioconjugate radioactivity in the organic phase to that in the aqueous phase. Each experiment was performed in triplicate and the obtained values averaged. In parallel, the aqueous phases were analyzed by HPLC to confirm the stability of the studied radioconjugate during the experiment time.

The target in a further series is T1, human NK1 receptor (Homo sapiens, UniProt P25103).
T1 construct: expressed in transfected cells; host or cells: CHO-K1 (hNK1R-CHO), gift from Dr. Attila Keresztes and Dr. John M. Streicher
As to the kind of experiment: Saturation binding of 177Lu-radioconjugates to hNK1R-CHO cells. The following applies: maximal binding concentration, 60 min at 37 °C, specific activity 5 MBq/nmol.

Molecules are shown by their SMILES. Several values for one entry are separate records, joined by “and”; a condition that tells them apart may be missing. Equal entries are not always repeated. Where two headings read alike, the source gives them in different places. Square brackets hold non-standard residues; d marks the D form. Peptide text beside a SMILES is read from it. * marks the point of attachment. DOTA = O=C(O)CN1CCN(CC(=O)O)CCN(CC(=O)*)CCN(CC(=O)O)CC1; Met(O2) = CS(=O)(=O)CC[C@H](N)C(=O)O; 2Thi = N[C@@H](Cc1cccs1)C(=O)O

T1 sequence (P25103 whole entry): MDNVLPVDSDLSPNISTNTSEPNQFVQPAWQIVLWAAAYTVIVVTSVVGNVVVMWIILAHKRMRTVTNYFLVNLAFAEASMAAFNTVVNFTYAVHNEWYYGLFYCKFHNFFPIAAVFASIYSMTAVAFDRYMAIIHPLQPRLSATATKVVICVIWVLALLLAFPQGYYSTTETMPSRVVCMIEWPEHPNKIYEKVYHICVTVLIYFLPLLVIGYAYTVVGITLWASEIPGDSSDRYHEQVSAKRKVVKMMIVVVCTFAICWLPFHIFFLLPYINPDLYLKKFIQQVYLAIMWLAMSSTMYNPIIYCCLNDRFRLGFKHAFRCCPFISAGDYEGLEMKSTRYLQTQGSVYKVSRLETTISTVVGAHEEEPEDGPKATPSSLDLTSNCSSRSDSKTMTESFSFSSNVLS
Protocol for human NK1 receptor: Cells were grown in Ham’s F12 medium (Biological Industries, Beit HaEmek, Israel) supplemented with 10% Foetal Bovine Serum (Biological Industries, Beit HaEmek, Israel) and 400 μg/mL G418 (Capricorn Scientific, Ebsdorfergrund, Germany), incubated in a humidified atmosphere with 5% CO2 at 37 °C.
In brief, 10^5 cells per well were seeded into 24-well plates and incubated 24 h before the experiment. Just before the assay, the cells were washed with 37 °C Dulbecco’s PBS and then incubated with different concentrations of an analyzed radioconjugate (0.2–50 nM at a final volume) in the medium, with or without a 1000-fold molar excess of blocker (aprepitant or [Thi^8,Met(O2)^11]SP) in relation to the highest radioconjugate concentration applied for 60 min at 37 °C. After incubation time, the assay medium was collected into plastic tubes for radioactivity measurement and the cells were washed twice with ice-cold Dulbecco’s PBS. Subsequently, the cells were lysed using 1 M NaOH and collected into plastic tubes also for radioactivity measurement.
The radioactivity of collected samples were measured using a Wizard2 2-Detector Gamma Counter (PerkinElmer, Waltham, MA, USA). […] The Kd and BMAX with standard deviations (SD), were calculated using the “One site-total and nonspecific binding” nonlinear regression curve fit (GraphPad Prism 8, GraphPad, San Diego, CA, USA).

Turning to `C[C@@H](O[C@H]1OCCN(Cc2nn(CCCCCCNC(=O)CN3CCN(CC(=O)O)CCN(CC(=O)O)CCN(CC(=O)O)CC3)c(=O)[nH]2)[C@H]1c1ccc(F)cc1)c1cc(C(F)(F)F)cc(C(F)(F)F)c1` [APT-Hex-DOTA, 2-(6-(2-(1,4,7-tris(carboxymethyl)-1,4,7,10-tetraazacyclododecan-10-yl)acetamido)hexyl)-5-([(2R,3S)-2-((R)-1-[3,5-bis(trifluoromethyl)phenyl]ethoxy)-3-(4-fluorophenyl)morpholino]methyl)-1H-1,2,4-triazol-3-one], the pH-dependent lipophilicity (logD) in series [1] (pH 7.4, logD 68Ga-) is 0.58 ± 0.03; in series [1] (pH 7.4, logD 177Lu-), 1.23 ± 0.03.

For the compound `CC(C)C[C@H](NC(=O)CNC(=O)[C@H](Cc1cccs1)NC(=O)[C@H](Cc1ccccc1)NC(=O)[C@H](CCC(N)=O)NC(=O)[C@H](CCC(N)=O)NC(=O)[C@@H]1CCCN1C(=O)[C@H](CCCCN)NC(=O)[C@@H]1CCCN1C(=O)[C@H](CCCNC(=N)N)NC(=O)CN1CCN(CC(=O)O)CCN(CC(=O)O)CCN(CC(=O)O)CC1)C(=O)N[C@@H](CCS(C)(=O)=O)C(N)=O` [[^177Lu]Lu-DOTA-[Thi^8,Met(O2)^11]SP, metal not drawn] ({DOTA}-RPKPQQF[2Thi]GL[Met(O2)]-NH2; N-terminus and C-terminus assumed), at human NK1 receptor, the “BMAX ± SD” value is 0.38 nM and 0.38 ± 0.02 nM.

Turning to `C[C@@H](O[C@H]1OCCN(Cc2nn(CCCCCCCCCCNC(=O)CN3CCN(CC(=O)O)CCN(CC(=O)O)CCN(CC(=O)O)CC3)c(=O)[nH]2)[C@H]1c1ccc(F)cc1)c1cc(C(F)(F)F)cc(C(F)(F)F)c1` [APT-Dec-DOTA, 2-(10-(2-(1,4,7-tris(carboxymethyl)-1,4,7,10-tetraazacyclododecan-10-yl)acetamido)decyl)-5-([(2R,3S)-2-((R)-1-[3,5-bis(trifluoromethyl)phenyl]ethoxy)-3-(4-fluorophenyl)morpholino]methyl)-1H-1,2,4-triazol-3-one], the logD in series [1] (pH 7.4, logD 68Ga-) was found to be 1.6 ± 0.04; in series [1] (pH 7.4, logD 177Lu-) it was 1.97 ± 0.02.

In the case of `C[C@@H](O[C@H]1OCCN(Cc2nn(CCCCCCCCNC(=O)CN3CCN(CC(=O)O)CCN(CC(=O)O)CCN(CC(=O)O)CC3)c(=O)[nH]2)[C@H]1c1ccc(F)cc1)c1cc(C(F)(F)F)cc(C(F)(F)F)c1` [APT-Oct-DOTA, 2-(8-(2-(1,4,7-tris(carboxymethyl)-1,4,7,10-tetraazacyclododecan-10-yl)acetamido)octyl)-5-([(2R,3S)-2-((R)-1-[3,5-bis(trifluoromethyl)phenyl]ethoxy)-3-(4-fluorophenyl)morpholino]methyl)-1H-1,2,4-triazol-3-one], the logD in series [1] (pH 7.4, logD 68Ga-) turned out to be 1.32 ± 0.04; in series [1] (pH 7.4, logD 177Lu-), 1.64 ± 0.02.
